The series is described as follows: yeast display, Sf9 membrane polyspecificity reagent, FACS + sequencing; frameworks hold sequencing errors. The procedure, abridged:
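A synthetic nanobody library was expressed on Saccharomyces cerevisiae BJ5465 by galactose induction for 36–48 hours. The library was stained for 1 hour at 4 °C with 10% biotinylated, detergent-solubilized Sf9 membrane reagent and enriched with streptavidin microbeads before FACS. Low and high (top ~1%) gates were set on anti-HA fluorescence for expression and streptavidin fluorescence for reagent binding, and each polyreactivity label reflects the gate of origin.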
Turning to “QVQHVESGGGLVQAGGSLRLSCAASGFTFYIYVMGWYRQAPGKERELVAAITWSGGRTYYADSVKGRFTISRDNAKNTVYLQMNSLKPEDTAVYYCAASYPGLSYHKYEYWGQGTQVTVSS”, the “polyreactivity (PSR sort gate)” value is “high polyreactivity”. As for “QVQHVESGGGLVQAGGSLRLSCAASGGIFYPNAMGWYRQAPGKERELVAAISSGGGSTYYADSVKGRFTISRDNAKNTVYLQMNSLKPEDTSGYYCAASADRLKSDVESDYWGQGTLVTVSS”, the entry is “low polyreactivity”; as for “QVQHVESGGGLVQAGGSLRLSCAASGIIFPRNAMGRYRQAPGKEREFVAAITLSGGRTYYADSVKGRFTISRDNAKNSVYLQMNSLKPEDTAVYYCAAYGFGPYKGVDYWGQGTQVTVSS”, “high polyreactivity”. Regarding “QVQHVESGGGLVQAGGSLRLSCAASGIIFSEYAMGWYRLAPGKERELVAVISRSGGRTYYADSVKGRFTISRDNAKNTVYFQMNSLKPEDTAVYYCAVVHKTFTGDYWGQGTQVTVSS”, the “polyreactivity (PSR sort gate)” value is recorded as “high polyreactivity”. As to “QVQHVESGGGLVQAGGSLRLSCAASGIIFYHNAMGWYRQAPVKERELVASITEIGGSTYYADSVKGLFTISRDNAKSTVYLQMNRLKPEDTAVYYCAAGTLTSFSRYDYWGQGTQVTVSS”, the “polyreactivity (PSR sort gate)” value is listed as “low polyreactivity”. The entry for “QVQHVESGGGLVQAGGSLRLSCAASGIIFYWYAMGWYRQAPGKERELVAAISRTGGSTYYADSVKGRFTISRDNAKNTVYLQMNSLKPEDTAVYYCAADDGGYWSAGHEYWGQGTQVTVSS” is “high polyreactivity”. Regarding “QVQHVESGGGLVQAGGSLRLSCAASGIISYKNVMGWYRQAPGKERELVAAISGRGGSTYYADSVKGRFTISRDNAKNTVYLQMNSLKPEDTAVYYCAKYPGISGYNYWGQGTQVTVSS”, the “polyreactivity (PSR sort gate)” value is “high polyreactivity”.

With “QVQHVESGGGLVQAGGSLRLSCAASGLIFRYYVKGWYRPAPGKERDLDAGITSSGGYTFYAESVKGRFTISRDNAKNTVYLQMNSLKPDDTAVYYCAARRPYAYARSSRYDYWGQGTQVSVSS”, the “polyreactivity (PSR sort gate)” value is “high polyreactivity”. Consider “QVQHVESGGGLVQAGGSLRLSCAASGLTFSQNAMGWYRQPQGQERELVAAISSSGTSTYYADSVKGRFSISRDNAKNTVYLQMNSVKPEDTAVYYCNAPPGTFQWQGHSDYWGQGTQVTVSS”, for which the “polyreactivity (PSR sort gate)” value is “low polyreactivity”. The entry for “QVQHVESGGGLVQAGGSLRLSCAASGLTFTAYVMGWYRQAPGKERELVAAIRISGGSTYYADSVKGRFTISRDNAKNTVYLQMKSLQPADTAVYYCATRHRHVTATDSRIGDYWGQGTQVTVSS” is “low polyreactivity”; for “QVQHVESGGGLVQAGGSLRLSCAASGLTFYRYAMGWNRQAPGKERELVAAITSGGSTYYADSVKGRFTISRDNAKNTVYLQMNSLKPEDTAVYYCARQYGYQPERYGYWGQGTQVTVSS” it is “low polyreactivity”. Take “QVQHVESGGGLVQAGGSLRLSCAASGNIFAVYAKGWYRQAPGKERELVAAITTGTNTYADSVKGRFTISRDNAKNTVYLQMNSLKPEDTAVYYCAARYYRPLDYWGQGTQLTVSS”: the “polyreactivity (PSR sort gate)” value is “low polyreactivity”.

Turning to “QVQHVESGGGLVQAGGSLRLSCAASGRIFGYYAMGWYRQAPGKERELVAAISRGGSTNYADSVNGRFTISLDNAKNSVYFQMNSLNPEDTAVYYCAADVASARYYHGYNYWGQGTQVTLSS”, the “polyreactivity (PSR sort gate)” value is on record as “high polyreactivity”.

Take “QVQHVESGGGLVQAGGSLRLSCAASGRIFIVNAMGWYRQAPGKERELVAAISYRGGSTYYADSVKGRFTISRDNAKNTVYLQMNSLKPEDTAVYYCAADRYSYLGYPYEYEYWGQGTQVTVSS”: the “polyreactivity (PSR sort gate)” value was “low polyreactivity”. “QVQHVESGGGLVQAGGSLRLSCAASGRIFPRYAMGWYGQTPGKERELVADISRSGGSTYYADSVKGRFTISRDNAKNSVYLQMNSLKPEDTAVYYCAASQYRRVKQGNYWGQGTQVTVSS”: the “polyreactivity (PSR sort gate)” value is listed as “high polyreactivity”.

With “QVQHVESGGGLVQAGGSLRLSCAASGRIFQHYPMGSYRQAPGKETEFVAAISSSSGSTYADSVKGRFTISRDNAKNTVYLQMNSLNPEDTAVYYCNRDYMPFKFYGGSHDMEYWGQGTQVTVSS”, the “polyreactivity (PSR sort gate)” value is on record as “low polyreactivity”. As to “QVQHVESGGGLVQAGGSLRLSCAASGRIFSRYAMGWYRQAPGKERELVAAITSGGSTYYADSVKGRFTISRDNAKNTVYLQMNSLKPEDTAVSYCATRYRFGSYHSIYDYWGQGTQVTVSS”, the “polyreactivity (PSR sort gate)” value is “high polyreactivity”. Regarding “QVQHVESGGGLVQAGGSLRLSCAASGRIFVPYVMGWYRQAPGKERELVASISDSDTSTYDADSVKGRFTISRDNAKTTVYLQMNSLKPEDTAVYYCNVDYWGKGTQVTVSS”, the “polyreactivity (PSR sort gate)” value is on record as “low polyreactivity”. Turning to “QVQHVESGGGLVQAGGSLRLSCAASGRIFVRNAMGWYRQARGKERELVADITNGGSTNYADSVKGRFTISRDNAKNTVYLQMNSLKPEDTAVYYCAVERYRYPFDYWGQGTQVTVSS”, the “polyreactivity (PSR sort gate)” value was “low polyreactivity”. Consider “QVQHVESGGGLVQAGGSLRLSCAASGRIFWYYAMGWYRQAPGKERELVAASTRGGITTYADSVKGRYTISRDNAKNTVYLQMNSLKPEDTAVYYCNAVRWYGRMDYWGQGTQVTVSS”, for which the “polyreactivity (PSR sort gate)” value is “low polyreactivity”.

As for “QVQHVESGGGLVQAGGSLRLSCAASGRIIWWYAMRRYRQPPGKERELVAVIDDSVGITYFADSVKGRFTISRDNAKNTVYLQMNSLKPVDTAVNYCARNVNAQKVLGGFDSWGKGTQVTVSS”, the “polyreactivity (PSR sort gate)” value was “low polyreactivity”. Consider “QVQHVESGGGLVQAGGSLRLSCAASGRIMARNAMGWYRQAPGKERELVADISYSGGRTYYADSVKGRFTISRDNSKNTVYFQMNRLKQEDTAVYYCADSRSSRTYHDDYWGQGTQVTVSS”, for which the “polyreactivity (PSR sort gate)” value is “high polyreactivity”. Consider “QVQHVESGGGLVQAGGSLRLSCAASGRIYFAYAMGWSRQAPGKERELVASITSGGSTNYADSVKGRFTISRDNGKNTLYLQMNSLKPEDTAVYYCAARSRFSNLYGRFYYWGQGTQVTVSS”, for which the “polyreactivity (PSR sort gate)” value was “high polyreactivity”. As for “QVQHVESGGGLVQAGGSLRLSCAASGRTFAGYAMGWYRQAPGKEWELVSGITRGVITNYADSVKGRFTISRDNAKNTVYLQMNSLKPEDTAVYSCNARTFPVRLYTPRYGYWGQGTQVTVSS”, the entry is “high polyreactivity”; as for “QVQHVESGGGLVQAGGSLRLSCAASGRTFDSYAMGWYRQAPGKERELVAAIYADSVKGRFTISRDNAKNTVYLQMNSLKPEDTAVYYCAAETYSGQTYLGEYDYWGQGTQVTVSS”, “low polyreactivity”; as for “QVQHVESGGGLVQAGGSLRLSCAASGRTFDYYAMGWYRQAPGKERELVASIRSSGRTTYADSVKGRFTISRDNAKNTDYLQMNSRKPEDTAVYYCAAQWPGWWGYDYWGQGTQVTVSS”, “low polyreactivity”. On to “QVQHVESGGGLVQAGGSLRLSCAASGRTFGGNAMGWYRQAPGKERELVAAISKSGGRTYYADSVKGRFTISRDNAKNTVYLQMNSLKPEDTAVYYCNKVLSVSQAGGFDYWGQGTQVTVSS”, for which the “polyreactivity (PSR sort gate)” value is given as “high polyreactivity”.

Regarding “QVQHVESGGGLVQAGGSLRLSCAASGRTFGINALGWYSQAPGNESELVADISGDGGNTYYADSVKGRFTISRDNAKNTVFLQMNSLKPEDTAVYFCATRYEKFRYDYWGQGTQVTVSS”, the “polyreactivity (PSR sort gate)” value was “low polyreactivity”. For “QVQHVESGGGLVQAGGSLRLSCAASGRTFNGYAMGWYRQAPGKERELVAAIRSTTGSTYYADSVKGRFTISRDNAKNTVYLQMNSLKPEETAVYYCAAAYPFYADMDYCGQGTQVTVSS”, the “polyreactivity (PSR sort gate)” value is “low polyreactivity”. For “QVQHVESGGGLVQAGGSLRLSCAASGRTFPGNAMGWYRQAPGKERELVAAISSSGGSTHYADSVKGRFTFSRDNAKNTVYLQMNSRKPEDSAVYYCNARSKGYSYRYYYWGQGTQVTVSS”, the “polyreactivity (PSR sort gate)” value is reported as “high polyreactivity”. As for “QVQHVESGGGLVQAGGSLRLSCAASGRTFTYNAMGWYRQAPGKERELVAAISWNGGRTYYADSVKGRFTISRDNAKNTVYLEMNSLKPEETAVYYCNAVSYNLAAYDYWGQGTQVTVSS”, the “polyreactivity (PSR sort gate)” value is recorded as “high polyreactivity”. The entry for “QVQHVESGGGLVQAGGSLRLSCAASGSIFASNAMGWYRQPPGKEREFVAAISSSGTRTYSADSVKGRFTISRDNAKNTVYLQLNSLKQEDTAVYYCATRRGYDSVYYFYTLWSYYWGQGTQVTVSS” is “low polyreactivity”; for “QVQHVESGGGLVQAGGSLRLSCAASGSIFGANAMGWYRQAPGNERQLVAAITSGGSTTYADSVKGRFTISRDNAKNTVYLQMNSLKPDDTAVYYCAADESTPYWPVDNFDYWGQGTQVTVSS” it is “low polyreactivity”; for “QVQHVESGGGLVQAGGSLRLSCAASGSIFGVYDMGWYRQAPGKERELVAAISWRGGSTYYADSVKGRFTISRDNAKNTVYLQMNSVKPEDTAVYYCNALGVAEYDWGQGTQVTVSS” it is “low polyreactivity”. Regarding “QVQHVESGGGLVQAGGSLRLSCAASGSIFHVNAMGWYRQAPGKERELVAAISSSGGRTYYADSVKGRFTISRDNAKNTVYLQMNSLKPEDTAVYYCAAASQVRQPPNGGNGYWGQGTQVTVSS”, the “polyreactivity (PSR sort gate)” value is recorded as “high polyreactivity”. As for “QVQHVESGGGLVQAGGSLRLSCAASGSIFNLYVMGWYRQAPGKERELVATISSGGSTNYADSVKGRFTISRDNAKNTVYLQMNSLKPEDTAVYYCAKPYIVYYSMDYWGQGTQVTVSS”, the “polyreactivity (PSR sort gate)” value is listed as “low polyreactivity”. “QVQHVESGGGLVQAGGSLRLSCAASGSIFRYNARGWYRQAPGKERELVAAISSSGGRTYYADSVKGRFTISRDNAKNTVYLQMNSLKPEDTAVYYCATADTRRFTYGYYYWGQGTQVTVSS”: the “polyreactivity (PSR sort gate)” value is listed as “high polyreactivity”. On to “QVQHVESGGGLVQAGGSLRLSCAASGSIFSVYAMGWYRPEPGKASQLFAGITRGGSTYADSVKGRFTISRDNAKNTVYLQMNSLKPEDTAVYYCAADALIATPSWGKYNYWVQGTQVTVSS”, for which the “polyreactivity (PSR sort gate)” value is “high polyreactivity”. For the sequence “QVQHVESGGGLVQAGGSLRLSCAASGSIFVRNAMGWYRQAPGKEREFVAAISRSGDSTNYADSVKGRFTISRDNAKNTVYLQMNSLKPEETAVYYCAVGYRYLKWVDYWGQGTQVTVSS”, the “polyreactivity (PSR sort gate)” value is recorded as “high polyreactivity”. For the sequence “QVQHVESGGGLVQAGGSLRLSCAASGSIFWVYVMGRYIQAPGQERELVAAITNGGSTDYADSVKGRFTISRDNAKNTVYLQMNSLKPEDTAFYYCAKRSTIWGRILITFDYWGQGTQVTVSS”, the “polyreactivity (PSR sort gate)” value is “low polyreactivity”.

On to “QVQHVESGGGLVQAGGSLRLSCAASGSIIDIYAMGWYRQAPGKERELVASISGGAGSTNYADSVKGRFTISRDNAKNSVYLQMNSLKPEDTGVDDFAAVVYVPVYFQHKFDVEYEYWGQGTQVTVSS”, for which the “polyreactivity (PSR sort gate)” value was “low polyreactivity”.

The values above are taken from the nanobody polyreactivity screen of Harvey et al. (2022).
